Results as given in publication PMC7127234.

Tests used:
[1] = system: Cc1cc(=O)oc2cc(NC(=O)[C@@H]3CCCN3C(=O)CN)ccc12; experiment: purified protein
[2] = system: CCCCN1C(=O)c2cccc3c(NC(=O)[C@@H]4CCCN4C(=O)CN)ccc(c23)C1=O; experiment: purified protein; conditions: Gly-Pro group cleaved by DPP-IV to release BAN

“DPP-IV (dipeptidyl peptidase IV) (Homo sapiens)” showed a Km [1] of 237.80 µM and a Km [2] of 42.93 µM.
